Source: article PMC3184076 (2011)

Target: MPR.03 biotinylated peptide (HIV-1, biotin on the C-terminus)
Assay: SPR

B1: CAP206-CH12 recombinant human monoclonal antibody (antibody, V domains shown)
VH: QVQLVQSGAEVKKPGSSVKLSCKASGGTFGSYSVTWVRQAPGQTFEWVGRIVPWVGVPNYAPKFQGRVTITADKSSTVYMELTSLRFEDTAVYYCATAYEASGLSYYYYMDDWGKGTTVTVSS
VL: EIVLTQSPGTLSLSPGERATLSCRASQSVTSSYLAWFRHKPGQAPRLLIYGASYRGTGIPDRISGSGSGTDFTLTISRLEPEDFAVYYCQHYGGSPGMYTFGQGTRLEIK
For B1, the koff was 0.00012 s⁻¹.
